Assay results as given in patent US20030171565A1.

Assays:
[1] = target: protein zero related (PZR), tyrosine-phosphorylated (human) (UniProt O95297); assay: immuno-depletion of extracts of pervanadate-treated cells with anti-SHP-2, Western blot of the supernatants
[2] = target: protein zero related (PZR), tyrosine-phosphorylated (human) (UniProt O95297); assay: immuno-depletion of extracts of pervanadate-treated cells with anti-PZR, Western blot of the supernatants

protein zero related (PZR), tyrosine-phosphorylated (human), sequence (O95297 36-269 limits assumed): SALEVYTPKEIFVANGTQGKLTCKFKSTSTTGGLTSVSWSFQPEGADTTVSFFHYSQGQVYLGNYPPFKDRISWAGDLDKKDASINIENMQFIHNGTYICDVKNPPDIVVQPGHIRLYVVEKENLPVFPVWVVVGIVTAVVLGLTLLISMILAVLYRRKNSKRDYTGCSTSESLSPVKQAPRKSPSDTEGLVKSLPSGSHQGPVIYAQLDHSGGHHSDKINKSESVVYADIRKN

loss of PZR from the extracts on immuno-depletion of SHP-2 [1]: > 90%
removal of SHP-2 from the extracts on immuno-depletion of PZR [2]: 50%
Substance: tyrosine phosphatase SHP-2, native full-length form (from UniProt Q06124 2-593) (enzyme)
